# Test results as given in patent publication US20250026850A1 (TRISHULA THERAPEUTICS, published 2025).
# Substitutions are numbered along the chain they refer to.
# T1: cynomolgus macaque (Macaca fascicularis) CD39 on cells (cynomolgus macaque (Macaca fascicularis), UniProt P49961 7-510 (human entry))
# T1 construct: CHO cells engineered to express cyno CD39, or primary cyno B cells and monocytes; also called cyno CD39; cCD39
# T1 chain: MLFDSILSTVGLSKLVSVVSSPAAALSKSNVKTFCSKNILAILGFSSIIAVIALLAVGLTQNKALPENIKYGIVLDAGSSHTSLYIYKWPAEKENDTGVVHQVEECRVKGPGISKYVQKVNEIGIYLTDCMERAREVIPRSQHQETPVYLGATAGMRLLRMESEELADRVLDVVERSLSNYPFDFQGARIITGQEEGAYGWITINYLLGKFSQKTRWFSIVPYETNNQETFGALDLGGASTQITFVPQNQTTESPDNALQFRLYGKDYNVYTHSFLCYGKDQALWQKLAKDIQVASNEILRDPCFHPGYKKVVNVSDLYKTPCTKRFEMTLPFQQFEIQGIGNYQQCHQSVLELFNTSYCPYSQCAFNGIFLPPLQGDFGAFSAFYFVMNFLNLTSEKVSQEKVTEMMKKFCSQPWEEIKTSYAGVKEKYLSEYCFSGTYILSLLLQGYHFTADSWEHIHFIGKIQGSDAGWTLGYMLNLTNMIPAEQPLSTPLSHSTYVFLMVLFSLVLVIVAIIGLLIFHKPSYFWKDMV
# T2: human CD39 on cells (human, UniProt P49961 1-510)
# T2 construct: One molecule for all cells that carry human CD39; the cell is named under assay; also called hCD39; cellular CD39
# T2 sequence: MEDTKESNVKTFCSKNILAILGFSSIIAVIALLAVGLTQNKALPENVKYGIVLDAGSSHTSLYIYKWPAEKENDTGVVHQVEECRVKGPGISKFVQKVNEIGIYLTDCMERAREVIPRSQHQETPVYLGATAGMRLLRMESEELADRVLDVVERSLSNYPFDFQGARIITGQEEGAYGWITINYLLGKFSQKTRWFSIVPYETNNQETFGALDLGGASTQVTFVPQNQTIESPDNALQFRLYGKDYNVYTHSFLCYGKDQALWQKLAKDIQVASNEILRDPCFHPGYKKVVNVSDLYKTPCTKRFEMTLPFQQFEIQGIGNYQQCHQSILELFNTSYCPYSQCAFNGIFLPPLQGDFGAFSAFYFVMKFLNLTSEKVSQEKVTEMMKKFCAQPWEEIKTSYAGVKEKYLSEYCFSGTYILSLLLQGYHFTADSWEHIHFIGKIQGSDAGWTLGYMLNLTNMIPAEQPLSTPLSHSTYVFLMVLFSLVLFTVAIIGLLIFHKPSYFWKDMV
# T3: rhCD39-ECD-His (R&D Systems) (human, UniProt P49961 38-478)
# T3 construct: Bought protein; that entry runs on through the C-terminal transmembrane and cytoplasmic residues; also called recombinant human CD39 extracellular domain; soluble recombinant human CD39 (ENTDP1) ECD; not shown: His tag
# T3 sequence: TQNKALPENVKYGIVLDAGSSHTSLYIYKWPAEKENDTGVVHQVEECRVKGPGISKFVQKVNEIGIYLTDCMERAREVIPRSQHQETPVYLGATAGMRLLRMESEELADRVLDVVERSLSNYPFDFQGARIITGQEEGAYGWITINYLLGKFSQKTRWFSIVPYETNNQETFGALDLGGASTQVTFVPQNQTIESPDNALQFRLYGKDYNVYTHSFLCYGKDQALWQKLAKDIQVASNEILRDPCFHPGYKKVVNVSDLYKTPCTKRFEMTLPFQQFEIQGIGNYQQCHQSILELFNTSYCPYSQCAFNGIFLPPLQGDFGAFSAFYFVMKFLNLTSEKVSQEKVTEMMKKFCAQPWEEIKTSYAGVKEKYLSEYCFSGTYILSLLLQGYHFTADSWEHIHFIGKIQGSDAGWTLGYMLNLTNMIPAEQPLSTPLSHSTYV
# B1: 27549 (antibody, V domains shown)
# VH: QVQLVESGGGVVQPGRSLRLSCAASGFTFSSYGMNWVRQAPGKGLEWVAVIWYDGSNKYYADSVKGRFTISRDNSKNTLYLQMNSLRAEDTAVYYCARDLGGYSYGEPYYYYYGMDVWGQGTTVTVSS
# VL: EIVLTQSPGTLSLSPGERATLSCRASQSVSSDYLAWYQQKPGQAPRLLIYGASSRATGIPDRFSGSGSGTDFTLTISRLEPEDFAVYYCQQAHSSPYTFGGGTKVEIKR
# B2: 27568 (antibody, V domains shown)
# VH: QVQLVQSGAEVKKPGSSVKVPCKASGGTFSSYAISWVRQAPEQGLEWMGSIIPIFGTANYAQKFQGRVTITADESTSTAYMELSSLRSEDTAVYYCAGESGGYRDHKLDVWGQGTVVTVSS
# VL: EIVLTQSPATLSLSPGERATLSCRASQSVSSYLAWYQQKPGQAPRLLIYDASNRATGIPARFSGSGSGTDFTLTISSLEPEDFAVYYCQQSVFWPITFGGGTKVEIKR
# B3: 27571 (antibody, V domains shown)
# VH: B2 VH with V20A, P21S, E42G, Q65R, A79T, G98R, K107R, V116M
# VL: EIVMTQSPATLSVSPGERATLSCRASQSVGSNLAWYQQKPGQAPRLLIYGASTRATGIPARFSGSGSGTEFTLTISSLQSEDFAVYYCQQYLIWPLTFGGGTKVEIK
# B4: 27535 (antibody, V domains shown)
# VH: QVQLVQSGAEVKKPGSSVKVSCKASGGTFSSYAISWVRQAPGQGLEWMGGIIPIFGTANYAQKFQGRVTITADESTSTAYMELSSLRSEDTAVYYCARDTPRWRYHYFDYWGQGTLVTVSS
# VL: B2 VL with N53K, S91V, V92L, F93N, W94Y, I96L
# B5: 27587 (antibody, V domains shown)
# VH: B2 VH with P21S, E42G, G98R, V116M
# VL: B2 VL with N53K, S91D, F93L, I96L
# B6: 31896 (antibody, V domains shown)
# VH: QVQLVQSGAEVKKPGSSVKVSCKASGGTFSKLAISWVRQAPGQGLEWMGGIGFGTANYAQKFQGRVTITADESASTAYMELSSLRSEDTAVYYCARGGAKYASTHGMDVWGQGTTVTVSS
# VL: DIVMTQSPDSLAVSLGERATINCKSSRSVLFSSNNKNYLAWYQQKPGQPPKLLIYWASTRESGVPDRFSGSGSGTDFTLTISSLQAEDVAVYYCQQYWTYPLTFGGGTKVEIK
# B7: 31915 (antibody, V domains shown)
# VH: B6 VH with K31S, A33P, A74T, T104K, H105W
# VL: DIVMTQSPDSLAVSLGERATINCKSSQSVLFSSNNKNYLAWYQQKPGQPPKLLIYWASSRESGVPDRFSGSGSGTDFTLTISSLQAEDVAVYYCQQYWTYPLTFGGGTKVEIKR
# B8: 27536 (antibody, V domains shown)
# VH: QVQLVQSGAEVKKPGSSVKVSCKASGGTFSNYAISWVRQAPGQGLEWMGGIIPIFGTANYAQKFQGRVTITADESTSTAYMELSSLRSEDTAVYYCARDTLYSSGAYYGYNVWGQGTMVTVSS
# VL: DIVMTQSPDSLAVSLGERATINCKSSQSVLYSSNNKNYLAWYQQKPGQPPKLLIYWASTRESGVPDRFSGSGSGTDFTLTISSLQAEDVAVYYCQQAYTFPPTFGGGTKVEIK
# B9: 27550 (antibody, V domains shown)
# VH: EVQLVESGGGLVKPGGSLRLSCAASGFTFSSYSMNWVRQAPGKGLEWVSSISSSSSYIYYADSVKGRFTISRDNAKNSLYLQMNSLRAEDTAVYYCARERRGSLALGMDVWGQGTLVTVSS
# VL: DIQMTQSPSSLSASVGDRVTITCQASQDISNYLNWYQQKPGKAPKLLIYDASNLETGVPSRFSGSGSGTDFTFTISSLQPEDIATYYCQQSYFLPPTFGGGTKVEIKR
# B10: 27579 (antibody, V domains shown)
# VH: QVQLVQSGAEVKEPGASVKVSCKAPGYTFTSYYMHWVRQAPGQGLEWMGVINPSGGSTSYAQKFQGRVTMTRDTSTSTVYMELSSLRSEDTAVYYCARGKREGGTEYLRHWGQGTLVTVSS
# VL: EIVLTQSPGTLSLSPGERATLSCRASQSVSSSYLAWYQQKPGQAPRLLIYGASSRATGIPDRFSGSGSGTDFTLTISRLEPEDFAVYYCQQYHSYITFGGGTKVEIK
# B11: 31418 (antibody, V domains shown)
# VH: B10 VH with E13K, P25S, T30K, Y33E, V50R, S59W
# VL: EIVLTQSPGTLSLSPGERATLSCRASQSVSSSYLAWYQQKPGQAPRLLIYGASSRATGIPDRFSGSGSGTDFTLTISRLEPEDFAVYYCQQYYFYITFGGGTKVEIKR
# B12: 31414 (antibody, human IgG4 S228P, kappa, V domains shown)
# VH: B10 VH with E13K, P25S, T30K, Y33E, V50R, G55V, S59W, H110N
# VL: B11 VL with Y93H, F94S
# B13: 29872 (antibody, V domains shown)
# VH: B10 VH with E13K, P25S, T30K, Y33E, V50R, G55V, S59W
# VL: B10 VL
# B14: 31415 (antibody, V domains shown)
# VH: B10 VH with E13K, P25S, Y33Q, V50R, S59W, H110S
# VL: B11 VL with Y93H, F94S
# B15: 31429 (antibody, V domains shown)
# VH: B10 VH with E13K, P25S, T30V, Y33F, V50S, S54R
# VL: B10 VL with S28Y, G51Y, S54N, Y95G
# B16: 31430 (antibody, V domains shown)
# VH: B10 VH with E13K, P25S, T30K, Y33E, V50R, S59W
# VL: B11 VL with R24E, S31Y, T57N, Y93H, F94S, Y95A, I96L
# B17: 31891 (antibody, V domains shown)
# VH: B10 VH with E13K, P25S, T28I, T30K, Y33E, V50R, G55V, S59W, H110V
# VL: B11 VL with G51Y, T57Y, Y93H, F94N, Y95A
# B18: 31431 (antibody, V domains shown)
# VH: B10 VH with E13K, P25S, Y33Q, V50R, S59W
# VL: B10 VL with S30A, S54N, A56H, S94G, Y95G
# Target: T1, cynomolgus macaque (Macaca …)
# Experiment: flow cytometry, 100 nM IgG, cCD39-CHO cells; MFI ratio to parental CHO
# Protocol: (§1) 100 nanomolar IgGs (each antibody is indicated as a unique clone number in the FIG.) were incubated at […] 30 minutes on ice in phosphate buffered saline (PBS) with parental CHO cells or CHO cells engineered to express either human or cynomolgus macaque (Macaca fascicularis) CD39 (CHO CD39 cells). Cells were then washed with ice cold PBS and incubated with a fluorescently labeled goat-anti-human IgG for 20 minutes on ice. Cells were washed and resuspended in ice cold PBS prior to analysis by flow cytrometry.
row,Binder,Cell Binding (FOB)
1,B1,566 FOB
2,B2,260 FOB
3,B3,1610 FOB
4,B4,738 FOB
5,B5,1400 FOB
6,B6,4540 FOB
7,B7,4580 FOB
8,B8,113 FOB
9,B9,2870 FOB
10,B10,2670 FOB
11,B11,3180 FOB
12,B12,3570 FOB
13,B13,4190 FOB
14,B14,3360 FOB
15,B15,3800 FOB
16,B16,3570 FOB
17,B17,4650 FOB
18,B18,3530 FOB

# Target: T2, human CD39 on cells
# Experiment: flow cytometry, 100 nM IgG, hCD39-CHO cells; MFI ratio to parental CHO
# Protocol: as §1
row,Binder,Cell Binding (FOB)
1,B1,822 FOB
2,B2,267 FOB
3,B3,1400 FOB
4,B4,301 FOB
5,B5,1450 FOB
6,B6,1040 FOB
7,B7,1090 FOB
8,B8,89 FOB
9,B9,2030 FOB
10,B10,1950 FOB
11,B11,1080 FOB
12,B12,1240 FOB
13,B13,1450 FOB
14,B14,1170 FOB
15,B15,1290 FOB
16,B16,1220 FOB
17,B17,1030 FOB
18,B18,1240 FOB

# Target: T3, rhCD39-ECD-His (R&D Systems)
# Experiment: BLI (Octet), IgG on anti-human Fc sensor, rhCD39-ECD-His 10-300 nM, 1:1 fit
# Protocol: The kinetic data was globally fit with a simple 1:1 Langmuir binding model to yield on-rate (kon) and off-rate (koff) values. The equilibrium dissociation constants (KD) were calculated from the kon and koff values.
# Binding kinetics were measured using the Octet Red96 system (ForteBio) at 25° C. in running buffer (1× Pall ForteBio Kinetics Buffer diluted into PBS or Tris pH 7.4). […] After a short baseline step in running buffer, the sensors were exposed to varying concentrations (10-300 nM) of rhCD39-ECD-His (R&D Systems) for the association step. Dissociation of the complex was monitored upon exposure of the sensors to running buffer once again. Data was processed using ForteBio Octet software with baseline subtraction, global fit and 1:1 binding model to obtain association and dissociation rates. KD was calculated from the ratio of kd to kₐ.
Binder,Kd,koff,kon
B2,173 nM,0.047 s⁻¹,272000 M⁻¹ s⁻¹
B3,16.4 nM,0.0105 s⁻¹,639000 M⁻¹ s⁻¹
B5,33.7 nM,0.00711 s⁻¹,211000 M⁻¹ s⁻¹
B6,9.05 nM,0.00815 s⁻¹,901000 M⁻¹ s⁻¹
B7,0.811 nM,0.000286 s⁻¹,353000 M⁻¹ s⁻¹
B8,114 nM,0.00751 s⁻¹,65900 M⁻¹ s⁻¹
B9,143 nM,0.0633 s⁻¹,444000 M⁻¹ s⁻¹
